One data set concerns His-GST-MBD1 (1-75). The data set can be described thus: pull-down. Particulars: 2 pg fragment mixed with 10 ug genomic DNA, 4 C overnight, q-PCR read-out, 5mC, PCR product, methylation procedure not detailed, EMSA/competition: 25 mM HEPES-NaOH pH 7.4, 0.1 M NaCl, 0.1 mM TCEP, 250 ng poly(dI-dC)(dI-dC), 30 min, 7.5% native PAGE in 1x TBE.
For the next data set, the target named is T1, Uhrf1 (Np95) SRA domain (mouse, UniProt Q8VDF2 405-613).
T1 sequence: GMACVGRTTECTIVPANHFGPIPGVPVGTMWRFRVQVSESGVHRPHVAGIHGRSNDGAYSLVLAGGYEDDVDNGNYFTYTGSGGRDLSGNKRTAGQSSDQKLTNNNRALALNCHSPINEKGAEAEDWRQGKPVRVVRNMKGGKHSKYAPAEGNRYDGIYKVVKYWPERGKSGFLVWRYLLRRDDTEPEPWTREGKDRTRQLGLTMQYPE
The data set can be described thus: EMSA; 0-3 uM SRA, 1 uM DNA, 250 ng poly(dI-dC); EMSA/competition: 25 mM HEPES-NaOH pH 7.4, 0.1 M NaCl, 0.1 mM TCEP, 250 ng poly(dI-dC)(dI-dC), 4 C, 30 min; 7.5% native PAGE in 1x TBE. Particulars: protein: recombinant; blunt.

Regarding methylated histone H3 DNA fragment, in the data set with His-GST-MBD1 (1-75), the binding signal worked out at 90 % recovered.

B1: CG/5mCG (hemi-methylated 12-bp) (dsDNA)
DNA 1: CTACCGGATTGC
DNA 2: GCAATCCGGTAG
modifications: 5mC at position 7 of strand 2 (GCAATCXGGTAG, X = 5mC)
Turning to B1, the binding result with Uhrf1 (Np95) SRA domain is listed as “binds”.

Source of the values: publication PMC3858372, “Cell Cycle-Dependent Turnover of 5-Hydroxymethyl Cytosine in Mouse Embryonic Stem Cells”.
